This note sets out measurements from patent US20130101592A1 (LYKERA BIOMED, published 2013).

Test [1] concerns the target recombinant human S100A2 (Abnova) (human, UniProt P29034 1-98). Nature of the test: ELISA on purified protein; legend: - no reaction. Background: ELISA stands for enzyme-linked immunosorbent assay.
In test [2] the target is T1, recombinant human S100A1 (Abnova) (human, UniProt P23297 1-94).
T1 sequence (looked up): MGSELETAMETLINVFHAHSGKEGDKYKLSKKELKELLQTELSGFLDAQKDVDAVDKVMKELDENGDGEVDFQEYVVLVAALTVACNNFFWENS
In words: ELISA on purified protein; legend: - no reaction.

Test [3] deals with recombinant human S100A6 (Abnova) (human, UniProt P06703 1-90). In words: ELISA on purified protein; legend: - no reaction.
A further test deals with T2, recombinant human S100A7 (human, UniProt P31151 1-101).
T2 sequence (looked up): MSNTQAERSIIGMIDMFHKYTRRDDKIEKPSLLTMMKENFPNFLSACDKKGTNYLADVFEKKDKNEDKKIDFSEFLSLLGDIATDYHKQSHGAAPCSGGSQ
Nature of the test: ELISA on purified protein; legend: - no reaction.

The target in test [4] is T3, recombinant murine S100A4 (murine, UniProt P07091 1-101).
T3 construct: also called Mouse S100A4
T3 sequence (P07091 whole entry, one chain of several): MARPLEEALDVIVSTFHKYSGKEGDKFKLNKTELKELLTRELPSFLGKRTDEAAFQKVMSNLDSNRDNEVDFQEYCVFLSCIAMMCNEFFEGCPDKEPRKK
In words: ELISA on purified protein; legend: ++++ positive reaction.

Sequence of recombinant human S100A2 (Abnova) (P29034 whole entry, one chain of several): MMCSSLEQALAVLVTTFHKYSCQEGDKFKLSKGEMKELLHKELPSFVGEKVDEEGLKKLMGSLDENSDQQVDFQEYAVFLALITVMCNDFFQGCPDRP

B1: monoclonal antibody 5C3 (hybridoma 5C3-1B8-1F4, ECACC 10022401) (antibody, IgG1, V domains shown)
VH: EAQLQQSGAELVKPGASVKLSCTASGFNIQETYMHWVKQRPEQGLEWIGRIDPANGNTKDDPKFQGKASITVDTSSNTAYLQLSSLTSEDTAVYYCASSYAMDYWGQGTSVTVSS
VL: DVLMTQTPLSLPVSLGDQASISCRSSQSIVHSNGNTYLEWYLQKTGQSPELLIYKVSNRLSGVPDRFSGSGSGTDFTLKISRVEAEDLGVYYCFQGSHVPFTFGSGTKLEIK
notes: constant regions are not; also called monoclonal mouse anti-human S100A4 5C3
On to B1, for which the binding result in test [1] is recorded as “no binding”; in test [2], “no binding”; in test [3] it was “no binding”; with recombinant human S100A7 it was “no binding”; in test [4] it was “binds”.
